According to US8377701B2, “Specific ligands to sortilin” (H. Lundbeck A/S, priority 2008, dated 2013):
Where no end group is shown, it is not given here.

T1: sSortilin (Homo sapiens, UniProt Q99523)
T1 construct: Soluble Sortilin (sSortilin); His6 (C); made in house; host or cells: CHO-K1
T1 sequence (Q99523 78-755 limits assumed): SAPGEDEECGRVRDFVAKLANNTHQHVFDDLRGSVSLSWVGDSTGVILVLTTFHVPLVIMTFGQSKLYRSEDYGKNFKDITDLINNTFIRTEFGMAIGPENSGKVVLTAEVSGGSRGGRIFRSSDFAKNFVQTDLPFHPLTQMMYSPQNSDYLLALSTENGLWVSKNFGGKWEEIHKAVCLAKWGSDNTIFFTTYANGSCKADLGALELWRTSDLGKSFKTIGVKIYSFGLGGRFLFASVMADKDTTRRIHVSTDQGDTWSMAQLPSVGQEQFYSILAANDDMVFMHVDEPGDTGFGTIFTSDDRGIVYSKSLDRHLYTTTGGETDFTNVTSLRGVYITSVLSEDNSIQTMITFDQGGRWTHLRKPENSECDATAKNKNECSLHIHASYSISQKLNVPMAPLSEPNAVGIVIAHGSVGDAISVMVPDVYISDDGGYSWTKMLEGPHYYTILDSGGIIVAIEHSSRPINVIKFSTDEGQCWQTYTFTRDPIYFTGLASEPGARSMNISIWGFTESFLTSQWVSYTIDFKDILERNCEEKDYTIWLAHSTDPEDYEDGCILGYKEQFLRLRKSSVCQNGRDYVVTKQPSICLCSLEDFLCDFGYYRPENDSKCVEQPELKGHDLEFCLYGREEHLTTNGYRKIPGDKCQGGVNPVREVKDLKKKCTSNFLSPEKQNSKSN

T2: S316E mutant sSortilin (Homo sapiens, UniProt Q99523, S316E)
T2 construct: His6 (C); made in house; host or cells: CHO cells
T2 sequence (Q99523 78-755 S316E): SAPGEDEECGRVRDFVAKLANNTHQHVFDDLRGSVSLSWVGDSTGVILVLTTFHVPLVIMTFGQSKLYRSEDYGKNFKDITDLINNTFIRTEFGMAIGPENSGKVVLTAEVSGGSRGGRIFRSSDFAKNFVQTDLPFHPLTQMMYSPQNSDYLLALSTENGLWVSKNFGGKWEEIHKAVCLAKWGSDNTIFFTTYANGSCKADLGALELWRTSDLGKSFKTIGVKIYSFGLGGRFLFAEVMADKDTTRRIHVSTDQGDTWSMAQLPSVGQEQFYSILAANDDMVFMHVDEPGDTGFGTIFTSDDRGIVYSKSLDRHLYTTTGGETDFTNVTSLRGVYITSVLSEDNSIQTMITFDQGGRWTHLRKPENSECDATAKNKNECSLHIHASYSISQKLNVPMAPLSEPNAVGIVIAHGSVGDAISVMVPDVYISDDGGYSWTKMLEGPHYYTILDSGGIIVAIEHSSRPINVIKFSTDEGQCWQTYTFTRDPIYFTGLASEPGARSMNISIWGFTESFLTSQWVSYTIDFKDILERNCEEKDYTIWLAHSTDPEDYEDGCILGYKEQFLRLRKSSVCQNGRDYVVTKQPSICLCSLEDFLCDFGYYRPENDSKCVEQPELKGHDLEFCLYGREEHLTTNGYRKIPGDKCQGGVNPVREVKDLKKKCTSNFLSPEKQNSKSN


Columns and labels:
[1] = target: T1, sSortilin; experiment: Surface plasmon resonance affinity of NGFpro and icosapeptides for immobilized sSortilin; type: binding; settings: BIAcore 3000, 20° C., read-out: dissociation constant (Kd)
Method: All measurements were performed on a BIAcore 3000 instrument (Biacore Sweden) maintained at 20° C. A continuous flow of buffer F (10 mM HEPES pH=7.4, 150 mM (NH4)2SO4, 1.5 mM CaCl2, 1.5 mM EGTA and 0.005% Tween-20) was passed over the CM5 chip sensor surface at 5 μl/min. The affinity of NGFpro and the peptides for immobilized sSortilin were determined. The dissociation constant (Kd) for NGFpro was ˜10 nM and for peptide-4 (SEQ ID NO:51) ˜5 μM. The ability of the peptides to compete with NGFpro for binding to sSortilin was tested as well.

[2] = target: T1, sSortilin; experiment: Surface plasmon resonance: ligand binding to immobilized sSortilin in absence or presence of Neurotensin derived peptides; settings: for inhibition of binding of Sort-pro (GST-Sort-pro) to sSortilin: FIG. 3A+B
Method: (§1) Surface plasmon resonance (SPR) measurements were performed on a BIAcore 2000 instrument (Biacore Sweden) equipped with CM5 sensor chips maintained at 20° C. A continuous flow of HBS buffer (10 mM HEPES pH 7.4, 3.4 mM EDTA, 150 mM NaCl, 0.005% surfactant P20) passing over the sensor surface was maintained at 5 μl/min. […] A sortilin solution (320 μl, 5 μg/ml in 10 mM sodium acetate pH 4.0) was then injected over flow cells 1 and 2 at a flow rate of 15 μl/min. Remaining binding sites in all three flow cells were blocked by injection (5 μl/min) of 70 μl of 1 M ethanolamine pH 8.5. […] Screening of the samples was performed by injecting aliquots of 50 μl, at concentrations of 0.1-8 μM, through all flow cells with a flow rate of 5 μl/min. Unless otherwise stated, the samples were dissolved in 10 mM HEPES pH 7.4, 150 mM NaCl, 1.5 mM CaCl2, 1 mM EGTA, 0.005% surfactant P20. Sample buffer was also used as running buffer. The BIAcore response is expressed in relative response units (RU), i.e. the difference in response between the immobilized protein flow cell and the corresponding control flow cell (activated and blocked but without protein). Regeneration of the sensor chip after each cycle of analysis was performed by injecting 20 μl of 10 mM glycine/HCl pH 4.0, 500 mM NaCl, 20 mM EDTA and 0.005% surfactant P20. For calciumfree conditions, HBS containing 20 mM EDTA was used as sample as well as running buffer.

[3] = target: T2, S316E mutant sSortilin; experiment: Surface plasmon resonance: ligand binding to purified sSortilin S316E mutant; settings: compared with wtSortilin
Method: as §1

| Molecule | inhibition of binding of Sort-pro (GST-Sort-pro) to sSortilin [2] | binding to S316E mutant [3] | further results |
| --- | --- | --- | --- |
| ITVDPRLFKKRRLRSPRVLF-NH2 [peptide-4] |  |  | Kd [1]: ~5 µM |
| Tyr-Ile-Leu [YIL] | full inhibition |  | inhibition of binding of the prodomain of NGF to sSortilin ([2]; FIG. 3C, not as efficiently as full length NT): hampers binding; inhibition of binding of RAP to sSortilin ([2]; FIG. 3D, not as efficiently as full length NT): hampers binding; affinity for Sortilin ([2]; summary statement): high affinity |
| BDNF: Mature BDNF, SEQ ID NO. 7 residues 128 to 246, purchased from R&D Systems |  | affinities similar to that of wtSortilin |  |
| Arg8-Arg-Pro-Tyr-Ile-Leu13-NH2 [reference compound] | fails to inhibit |  |  |
| Sort-pro: Sortilin's own propeptide, residues 34-77 of SEQ ID NO:1, fused to GST (QDRLDAPPPPAAPLPRWSGPIGVSWGLRAAAAGGAFPRGGRWRR; also: fused to GST) |  | no binding |  |
| NGFpro: propeptide of Nerve Growth Factor, residues 19-121 of SEQ ID NO:6 (protein, left off: a dimerising Fc or GST) EPHSESNVPAGHTIPQVHWTKLQHSLDTALRRARSAPAAAIAARVAGQTRNITVDPRLFKKRRLRSPRVLFSTQPPREAADTQDLDFEVGGAAPFNRTHRSKR |  | affinities similar to that of wtSortilin |  |
